The results in this text go back to US8980543B2, “Method of measuring enzyme activity by multi-dimensional nuclear magnetic resonance” (Canon Kabushiki Kaisha, priority 2007, dated 2015).

The test addresses T1, MMP2 (Homo sapiens, UniProt P08253).
T1 construct: purchased R&D systems Inc
T1 sequence (P08253 110-660): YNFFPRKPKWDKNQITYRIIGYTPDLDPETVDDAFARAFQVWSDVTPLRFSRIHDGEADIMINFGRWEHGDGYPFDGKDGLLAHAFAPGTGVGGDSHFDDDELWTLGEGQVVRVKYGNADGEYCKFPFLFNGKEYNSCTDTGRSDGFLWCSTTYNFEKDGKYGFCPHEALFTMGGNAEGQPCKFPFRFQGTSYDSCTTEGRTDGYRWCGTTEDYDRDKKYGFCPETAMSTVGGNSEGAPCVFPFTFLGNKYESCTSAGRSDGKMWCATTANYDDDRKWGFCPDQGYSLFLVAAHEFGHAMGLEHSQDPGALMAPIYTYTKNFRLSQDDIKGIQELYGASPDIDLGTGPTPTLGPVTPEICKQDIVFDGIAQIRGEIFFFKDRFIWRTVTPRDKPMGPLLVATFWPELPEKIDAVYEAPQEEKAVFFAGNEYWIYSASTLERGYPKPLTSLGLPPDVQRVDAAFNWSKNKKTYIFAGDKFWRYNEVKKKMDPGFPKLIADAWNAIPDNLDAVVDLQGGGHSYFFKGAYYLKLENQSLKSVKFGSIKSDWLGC
Briefly: Reaction between MMP2 and substrate peptide-probe, cleavage monitored by HPLC and MALDI-TOF-MS. Format: biochemical. The settings on record: 1 mM peptide, MMP2 1 μg, TCNB buffer pH 7.5, room temperature (25° C.), 18 hours; fragments GPLG and VRGK. How it is done: A TCNB buffer (50 mM Tris, 10 mM CaCl2, 150 mM NaCl, 0.05% Brij 35, pH 7.5) was used as a buffer for an enzymatic reaction. A MMP2 precursor (R&D systems Inc.) was activated in 1 mM 4-aminophenylmercury acetate (APMA, manufactured by Sigma) in accordance with the protocol attached to the product to obtain activated MMP2 (hereinafter, simply referred to as MMP2). MMP2 (1 μg) was dissolved in 0.9 mL of the reaction buffer. To this solution, 780 μg of the substrate peptide synthesized above was added to obtain a solution containing a peptide in a concentration of 1 mM. The resultant solution was incubated at 25° C. for 18 hours.
The peptide was cleaved by an enzyme, MMP2. The peptide solution before and after the reaction with the enzyme was monitored by HPLC analysis (A=H2O/0.1% TFA and C═CH3CN/0.1% TFA; initial 5 minutes: 0% C, 5 to 35 minutes: 0 to 30% C, using an YMC HPLC column, YMC-Pack ODS-A (AAl2S05-2546WT) manufactured by YMC and having a length of 250 mm and an inner diameter of 4.6 mm; a particle diameter of 5 μm, a pore diameter of 12 nm, a flow amount of 0.8 mL/minute; and detection was made at UV of 220 nm). HPLC elution profiles of the peptide solution (MMP−) before treated with the enzyme and the peptide solution (MMP+) after treated with the enzyme are illustrated in FIG. 5.
The peak was separated and subjected to MALDI-TOF-MS analysis. […]

For the sequence GPLGVRGK, the “cleavage of the isotope-labeled peptide by MMP2” value was “completely cleaved”.
